Source: the DeepSol protein solubility set

assay: soluble on expression in E. coli; label from the status in PepcDB or PDB records

Question: For “MAHHHHHHMVSGFVEFEILRGKNYPQTEDDPNPCTTQVTVSVVDALSGAVLSRAQLSSIQQNSNAPFYNDTLNFRVEDAPEDVCLSISVSEHSRQKIPFVLFYGKQIIGLSKLKAKQRFVIPLFSGEEGTQQVEIGADTLDLESSGKVPFLSARIQFTKDKVFDKTDPYSDVDVSGKGLSFDGKNQLVPEGTQYVWLRLKSDKKWTNSFQYELSVAWRSRAPLEAENQGNTKSRKGTTGGMAAISAEPDSARTLGDIIIKKWCCRRTHQVLTRVCITAEKYGNKVTDLTFTPKEEVEFRTNKKERCVFLEQICKKRLEDACSNCLRQWLNRLWILFVTGVDSDPAEARALSYEVRKAVHDAQFTEADAIILQACLLFSFIPSLKYEVCQALSESDYQAAQSEKKIEVGALESPQCRVTPSQEMFTRVFISFVGSLLDTLTEAEIAKAAAEFKPAIWDAQQRIAKGAKSTIGSCKKKYEGSIFKGTGIHIDHLDKLGRRKQVPKFV”, which “soluble on expression in E. coli” value is on record?
Answer: Its value is “soluble”.

Question: For “MAHHHHHHMVVFINGLPVLTFELKNSLTKQTVADAVVQYQTDRNPAELLFQLGRCIAHVAVDDAEVRFCTHLTGKTSWFLPFNQGWNSGAGNPPNPNGLRTDYLWKQVLAKESLANIIENYAQVIEEEEEDTNGRKRRTRKQIFPRFHQLRTVRALMRRSRADGVGKRYLIQHSAGSGKSNTIAWLAHQLVELKTAADNTQAQFDSVIVITDRRALDAQIARTIKAYDHVASIYGHSESADELRTFLAPGQEDHRHHGAEVPVHPDELGGTL”, which “soluble on expression in E. coli” value is on record?
Answer: The value was “not soluble”.

Question: Which “soluble on expression in E. coli” value does the source give for “MAHHHHHHMWYSNLFVAKLPRHLCDGDLLQIFSNFNPLGAKIMLDPSTGNSKGFGFVLFDKEEEGRTAYERLNRKLVRVCNSSFNLLIYPSQHNGKAVTLPSRAVYIRNIPTTMGEREVQNFLSNLAPLEYCAMRGDHHGNPVWVVYAEFDTPQNAQRVLDKLHGNSNHFGGPPIMVKYADTDEAKRERRRRREEGRLAPGPALKGACLFPPPRPGVVSLNQTQVSQSATETSPSCSPAAHHVTKTKMVAPMVEVEPRAQPLYFSTSPVTAMPPLLPVDMSYDGAAATVPLQTADCPAANGVLVLGNGQQVFLTPNAVNLHPTKFNAPPTALLVPAVDTTLVPLPPQRTLVYGPW” here?
Answer: Its value is “not soluble”.

Question: Which “soluble on expression in E. coli” value does the source give for “MAHHHHHHMYAIADTDDILIRSNPCRLSVNGVHISVCNEDVVGDMRDRMVERWPTADGSLRRVVEALVNGRLYVPLYSLPVATADLKHLPHLRMDYVPSQNELLEIKPAAAALASSTATKGDRRGNADGSDATTSTSGASSSRGWETVFSVAEQPSTDMAAWLQHKVKRAKLEDAAGDNEEGDAASAPGGPVTPSTPTASSKTEYLPHIMFLPSTRPQFATVTHQSEEVDGADIDSAESASGVLVVNQEVWSTRSSPKFELRVAEVTIPNTDLVLRRGATSTNGVTCGVLHIYSA” here?
Answer: Its value is “soluble”.

Question: With “MAHHHHHHMYVAIYNIGKKKNIGSIVRSCVAFRVSKIFVVSRKKNQVNFFGHMGTCEYITIEYFSSMKELKTHLRDNGILLYACEITSSAVPVTRRPFENKDTAFLFGNEGTGINDETLSYCDKVVYIPQYGNGTCSLNVSVSCAIILHHFAVWADYPEVGISGKKFVLNKCATKLERYLNPSDDLLRQISEKRAQRAATKLASPDWAAPHFADPSPDLFPG” as the sequence, how does the “soluble on expression in E. coli” value read?
Answer: Its value is “not soluble”.

Question: Which “soluble on expression in E. coli” value does the source give for “MAHHHHHHMYVLEGFYESVYNARWHHVVEVPDGEGTGMEVREGKSPQSWTYRAAGEFLEKNDGEEQSGALRPRLMVLTSGKGWPYSWEEDESTPDCYVNCEVDRVWQIVRNDLTELLGPDPGADFRPERRVLIGTPGIGKSLAAGSYLLYQLLQYDAEQLPMVAYVFAGRK” here?
Answer: The value was “not soluble”.

Question: With “MAHHHHHHMYYIYIYIYENGSAYQKDNDNTVENKLLENLYKLELIDNYDTPLSRVSRTDKGVSARINGINLRLNIKYENVPIFEIEKKYVKELKKKLKNIHIHDIKHVSNTFDARLNCIQRTYVYFFINKNYNIEKMKKAAKLFIGEHDFSNCCKKGKNVTSNRRTVLKFDIRNIDKHFYYFKIKGISFLYNQIRHMVAILFLVGKGLLDNNDVNNILNNTSTKRKNYHIADENGLLLYSFKFNDYKYNNHVNNKIFLNVMNKYIQSTMLLVSLCHPLKLENKNEDFFENLDDEDIKNDVIHNNMIKEINKK” as the sequence, how does the “soluble on expression in E. coli” value read?
Answer: Its value is “not soluble”.

Question: For “MAHHHHHHNEKDIGKLKKTFEAFDHNGDGVLTISEIFQCLKLNDNELDTELYFLLKQLDTDGNGLIDYTEFLAACLDHSIFQQDVICRNAFNVFDLDGDGVITKEELFNILSFSAVQVSFSKEIIENLIKEVDANNDGFIDYDEFYKMMTGAK”, which “soluble on expression in E. coli” value is on record?
Answer: The value was “soluble”.

Question: With “MAHHHHHHQTQTPSQLLQSFTTRTTDYNQLINSVGINAITPQQIQRIEKLSGKAPHHYLSRGVFLAEKSLDKFLDDVEAKKPTFIFIQKYPQKEVALEEYITLEFARYLQDAFNIQVIIQILDDIKVLNREATINEASKMSNDLMKYILAFGFNEDKTFIYTDYQYFGKMYRTISLVEKATAYNVVQPFFNFEYSDNIGKLASPSIMTASMFSQSYSHFFSSPARCLVLDSIKNVQFHSIIDQIATTLNFIQPTVLFHKMVPLLSGVTKFDIPSDHNSILLSDNAKQVERKINKLAFSGGRNTTEEHKKLGGQCDIDVSFQLLNIFSSDNAQVKDVEEKYSKGELLSGELKKIVSASMKDFIVAYDAKKKPITTAYLKAYISKTKF” as the sequence, how does the “soluble on expression in E. coli” value read?
Answer: Its value is “soluble”.

Question: Which “soluble on expression in E. coli” value does the source give for “MAHHHHHHSLIDGLLITELNKLTPGSSYIFLDYDGTLVPIIMNPEQSLADPELIEMLTELRSKYKLFIVSGRSPEEIKRFIPLDLNLICYHGACSIVNGKTYYYNNAQSFLGIFNEIYQSSLNLVNEFPGLRIYKKNLAVLYHFGLMKPQDVPALERVIVEISQKEHVDVYKGKMIFELRVPGVNKGIAIKNVRDEETALIAGDDATDECSFKYNEDAITIKVGPGKTSAHFRVNDYSEMREVLKLLLNNAEKRSEG” here?
Answer: Its value is “soluble”.

Question: Which “soluble on expression in E. coli” value does the source give for “MAHHHHHHSLITANDIRAAHARGEQAMSVVLRASIITPEAREVAELLGFTITECDESVPASTSAQACKSESQRIREAIIAQLPEGQFTESLVAQLMEKVLKEKQSLELGTMQPSFTSVTGKGGVKVIDGSSVKFGRFDGAEPHCVGLTDLVTEQDGSSMAAGFMQWDNAFFPWTLNYDEIDMVLEGELHVRHEGETMIAKAGDVMFIPKGSSIEFGTPTSVRFLYVAWPANWQSVEG” here?
Answer: Its value is “soluble”.

Question: With “MAHHHHHHSLKKPTHSGSGQIRIIGGQWRGRKLPVPDSPGLRPTTDRVRETLFNWLAPVMVDAHCLDCFAGSGALGLEALSRYAAQATLLEMDRAVSQQLQKNLATLKANNARVVNTNTLTFLSQPGTPHHVVFVDPPFRKGLLEETLQLLETQGWLADDALIYVESEVENGLPPVPANWALYREKVAGQVAYRLYQRDAQGENDVD” as the sequence, how does the “soluble on expression in E. coli” value read?
Answer: The value was “soluble”.

Question: For “MAHHHHHHSLSLQVTTKTGKESQKKTQTTAKSTITVDIKGAVKHEGVYTLPIDSRINDVIEKAGGFSEKADRKSVNLAQKLQDEAVIYVAAIGENISVIRDSQEGKTSQADKANTKETSVKGKVNLNTATLADLQTISGIGEKKAQDILDYREANGGFKSVDDLKNISGIGDKTFEKLKDLVSVDEG”, which “soluble on expression in E. coli” value is on record?
Answer: The value was “not soluble”.

Question: For “MAHHHHHHSTLRHSHEPSPYVQKGEDLSGQKLTPTIKSYRNMEFLNSYSGRMIRILCEFEEPKQRLQQHFIRTTVLFFGSARSMTQAQYDSTVQDIHSKLAAATDDSTKASLQNKLACLKKTQWMCKWVDVVENLARMVAEFSQKEQDMIIRSFRHIPDYFRLTPEDGSESLDDLQKRFHDLVVTTGGGPGFMEAANHGAESVPGAVTMGMGISLPFENGLNPHVTKGLAFEFHYFFTRKFWMMYSCRAIVIAPGGFGTLDEMFELLTLKQTKKIPSLPVVLLGKEFWQTVVNWQALANYGVISQEEIDSLLFTDSAEEAVEHIKDFYHRLASDSPSTE”, which “soluble on expression in E. coli” value is on record?
Answer: Its value is “soluble”.

Question: With “MAHHHHHHVDDDDKMVPYTVRFTTTARRDLHKLPPRILAAVVEFAFGDLSREPLRVGKPLRRELAGTFSARRGTYRLLYRIDDEHTTVVILRVDHRADIYRR” as the sequence, how does the “soluble on expression in E. coli” value read?
Answer: Its value is “soluble”.

Question: With “MAHHHHHHVSASPPQRDRGSPPTRPLSEPQDVDAPAAGTVQALRQAVEAQEACVRLLRARQAAREALLRHTRRLLTADDSIEWPGSVEQLVRQVEASLHKLQQAHSEAAAPAATTADNVAPTSAPSRSPRNAAGDADPSADPLARIFHSGVEAQLAAVAEPPHTLPASTLASRSSTAKRRKEAGESGLTNAVSTTSPPPGGPFPPRSAAMTALLARSASRQEAGHAAMLAALSALELSLMSNSGATEVGRDVHNAEPAWLRQVDSDSANDDDAAPEEQQQEKEGNRGDIASSDYSDDFECGSSTSSGADD” as the sequence, how does the “soluble on expression in E. coli” value read?
Answer: Its value is “soluble”.
